{"source": "patent US20170119877A1", "target": "murine VISTA (V-domain Ig suppressor of T cell activation) on spleen cells / Ly6C+CD11b+ MDSCs of B6 mice (mouse) (UniProt Q9D659)", "sequence (Q9D659 33-308)": "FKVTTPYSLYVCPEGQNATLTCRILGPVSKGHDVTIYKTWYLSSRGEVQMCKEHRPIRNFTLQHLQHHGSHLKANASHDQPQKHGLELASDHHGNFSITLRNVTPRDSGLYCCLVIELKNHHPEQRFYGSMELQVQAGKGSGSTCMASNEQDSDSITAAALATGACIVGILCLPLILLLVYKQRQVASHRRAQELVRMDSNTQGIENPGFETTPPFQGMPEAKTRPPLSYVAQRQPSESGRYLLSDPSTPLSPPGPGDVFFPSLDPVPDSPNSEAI", "test": "cell-based or functional assay", "data": [{"substance": "anti-VISTA mAb (13F3) (antibody)", "values": [{"measurement": "blocking of MDSC suppression of B-cell responsiveness (3H-thymidine incorporation, α-CD40 + IL-4 stimulation)", "result": 50, "unit": "%"}, {"measurement": "blocking of MDSC suppression of B-cell responsiveness, corrected for control HIg", "result": 55, "unit": "%"}, {"measurement": "blocking of MDSC suppression of B-cell responsiveness, over several independent experiments", "result": 65, "unit": "%"}]}]}
